Test results published in patent US20180291110A1 (Hoffmann-La Roche, published 2018).

B1: 2/99 VH19/VL1 (antibody, V domains shown)
VH: QSMQESGPGLVKPSQTLSLTCTVSGFSLSSYAMSWIRQHPGKGLEWIGYIWSGGSTDYAPSLKSRVTISVDTSKNQFSLKLSSVTAADTAVYYCARRYGTSYPDYGDANGFDPWGQGTLVTVSS
VL: DIQMTQSPSSLSASVGDRVTITCRASQSISSYLNWYQQKPGKAPKLLIYRASSLQSGVPSRFSGSGSGTDFTLTISSLQPEDFATYYCQQSYSSSNVDNTFGGGTKVEIK
B2: 2/99 VH23-DANG/VL1 (antibody, V domains shown)
VH: QSMQESGPGLVKPSQTLSLTCTVSGFSLSSYAMSWIRQHPGKGLEWIGYIWSGGSTDYASWAKSRVTISKTSTTVSLKLSSVTAADTAVYYCARRYGTSYPDYGDANGFDPWGQGTLVTVSS
VL: DIQMTQSPSSLSASVGDRVTITCRASQSISSYLNWYQQKPGKAPKLLIYRASSLQSGVPSRFSGSGSGTDFTLTISSLQPEDFATYYCQQSYSSSNVDNTFGGGTKVEIK
B3: 2/99 VH20/VL1 (antibody, V domains shown)
VH: QSMQESGPGLVKPSQTLSLTCTVSGFSLSSYAMSWIRQHPGKGLEWIGYIWSGGSTDYAPSLKSRVTISVDTSKNQVSLKLSSVTAADTAVYYCARRYGTSYPDYGDANGFDPWGQGTLVTVSS
VL: DIQMTQSPSSLSASVGDRVTITCRASQSISSYLNWYQQKPGKAPKLLIYRASSLQSGVPSRFSGSGSGTDFTLTISSLQPEDFATYYCQQSYSSSNVDNTFGGGTKVEIK
B4: 2/99 VH13/VL2 (antibody, V domains shown)
VH: QVQLQESGPGLVKPSETLSLTCTVSGFSLSSYAMSWIRQPPGKGLEWIGYIWSGGSTDYNPSLKSRVTISVDTSKNQVSLKLSSVTAADTAVYYCARRYGTSYPDYGDANGFDPWGQGTLVTVSS
VL: DIQMTQSPSSLSASVGDRVTITCRASQSISSYLNWYQQKPGKAPKLLIYRASTLASGVPSRFSGSGSGTDFTLTISSLQPEDFATYYCQQSYSSSNVDNTFGGGTKVEIK
B5: 2/99 VH12/VL2 (antibody, V domains shown)
VH: QVQLQESGPGLVKPSETLSLTCTVSGFSLSSYAMSWIRQPPGKGLEWIGYIWSGGSTDYNPSLKSRVTISVDTSKNQFSLKLSSVTAADTAVYYCARRYGTSYPDYGDANGFDPWGQGTLVTVSS
VL: DIQMTQSPSSLSASVGDRVTITCRASQSISSYLNWYQQKPGKAPKLLIYRASTLASGVPSRFSGSGSGTDFTLTISSLQPEDFATYYCQQSYSSSNVDNTFGGGTKVEIK
B6: 2/99 VH2/VL2 (antibody, V domains shown)
VH: EVQLVETGGGLIQPGGSLRLSCAASGFSLSSYAMSWVRQAPGKGLEWVGYIWSGGSTDYADSVKGRFTISRDNSKNTLYLQMNSLRAEDTAVYYCARRYGTSYPDYGDANGFDPWGQGTLVTVSS
VL: DIQMTQSPSSLSASVGDRVTITCRASQSISSYLNWYQQKPGKAPKLLIYRASTLASGVPSRFSGSGSGTDFTLTISSLQPEDFATYYCQQSYSSSNVDNTFGGGTKVEIK
B7: 2/99 VH6/VL2 (antibody, V domains shown)
VH: QQLVETGGGLIQPGGSLRLSCAASGFSLSSYAMSWVRQAPGKGLEWIGYIWSGGSTDYADSVKGRFTISRDNSKNTLYLQMNSLRAEDTAVYYCARRYGTSYPDYGDANGFDPWGQGTLVTVSS
VL: DIQMTQSPSSLSASVGDRVTITCRASQSISSYLNWYQQKPGKAPKLLIYRASTLASGVPSRFSGSGSGTDFTLTISSLQPEDFATYYCQQSYSSSNVDNTFGGGTKVEIK
B8: 2/99 VH22/VL1 (antibody, V domains shown)
VH: QSMQESGPGLVKPSQTLSLTCTVSGFSLSSYAMSWVRQHPGKGLEWIGYIWSGGSTDYASWAKSRVTISVDTSKNQVSLKLSSVTAADTAVYYCARRYGTSYPDYGDANGFDPWGQGTLVTVSS
VL: DIQMTQSPSSLSASVGDRVTITCRASQSISSYLNWYQQKPGKAPKLLIYRASSLQSGVPSRFSGSGSGTDFTLTISSLQPEDFATYYCQQSYSSSNVDNTFGGGTKVEIK
B9: 2/99 VH11/VL2 (antibody, V domains shown)
VH: QQLLESGGGLVQPGGSLRLSCAASGFSLSSYAMSWVRQAPGKGLEWVGYIWSGGSTDYADSVKGRFTISRDNSKNTLYLQMNSLRAEDTAVYYCARRYGTSYPDYGDANGFDPWGQGTLVTVSS
VL: DIQMTQSPSSLSASVGDRVTITCRASQSISSYLNWYQQKPGKAPKLLIYRASTLASGVPSRFSGSGSGTDFTLTISSLQPEDFATYYCQQSYSSSNVDNTFGGGTKVEIK
B10: 2/99 VH21/VL1 (antibody, V domains shown)
VH: QSMQESGPGLVKPSQTLSLTCTVSGFSLSSYAMSWIRQHPGKGLEWIGYIWSGGSTDYASWAKSRVTISVDTSKNQVSLKLSSVTAADTAVYYCARRYGTSYPDYGDANGFDPWGQGTLVTVSS
VL: DIQMTQSPSSLSASVGDRVTITCRASQSISSYLNWYQQKPGKAPKLLIYRASSLQSGVPSRFSGSGSGTDFTLTISSLQPEDFATYYCQQSYSSSNVDNTFGGGTKVEIK
B11: 2/99 VH8/VL2 (antibody, V domains shown)
VH: QQLVETGGGLIQPGGSLRLSCAASGFSLSSYAMSWVRQAPGKGLEWIGYIWSGGSTDYASWAKGRFTISKTSTTLYLQMNSLRAEDTAVYYCARRYGTSYPDYGDANGFDPWGQGTLVTVSS
VL: DIQMTQSPSSLSASVGDRVTITCRASQSISSYLNWYQQKPGKAPKLLIYRASTLASGVPSRFSGSGSGTDFTLTISSLQPEDFATYYCQQSYSSSNVDNTFGGGTKVEIK
B12: 2/99 VH5/VL2 (antibody, V domains shown)
VH: QSMEETGGGLIQPGGSLRLSCAASGFSLSSYAMSWVRQAPGKGLEWVGYIWSGGSTDYADSVKGRFTISRDNSKNTLYLQMNSLRAEDTAVYYCARRYGTSYPDYGDANGFDPWGPGTLVTVSS
VL: DIQMTQSPSSLSASVGDRVTITCRASQSISSYLNWYQQKPGKAPKLLIYRASTLASGVPSRFSGSGSGTDFTLTISSLQPEDFATYYCQQSYSSSNVDNTFGGGTKVEIK
B13: 2/99 VH1/VL2 (antibody, V domains shown)
VH: VQLVETGGGLIQPGGSLRLSCAASGFSLSSYAMSWVRQAPGKGLEWVGYIWSGGSTDYADSVKGRFTISRDNSKNTLYLQMNSLRAEDTAVYYCARRYGTSYPDYGDANGFDPWGQGTLVTVSS
VL: DIQMTQSPSSLSASVGDRVTITCRASQSISSYLNWYQQKPGKAPKLLIYRASTLASGVPSRFSGSGSGTDFTLTISSLQPEDFATYYCQQSYSSSNVDNTFGGGTKVEIK
B14: 2/99 VH7/VL2 (antibody, V domains shown)
VH: QQLVETGGGLIQPGGSLRLSCAASGFSLSSYAMSWVRQAPGKGLEWIGYIWSGGSTDYASWAKGRFTISRDNSKNTLYLQMNSLRAEDTAVYYCARRYGTSYPDYGDANGFDPWGQGTLVTVSS
VL: DIQMTQSPSSLSASVGDRVTITCRASQSISSYLNWYQQKPGKAPKLLIYRASTLASGVPSRFSGSGSGTDFTLTISSLQPEDFATYYCQQSYSSSNVDNTFGGGTKVEIK
B15: 2/99 VH15/VL2 (antibody, V domains shown)
VH: QQLQESGPGLVKPSETLSLTCTVSGFSLSSYAMSWVRQPPGKGLEWIGYIWSGGSTDYNPSLKSRVTISVDTSKNQVSLKLSSVTAADTAVYYCARRYGTSYPDYGDANGFDPWGQGTLVTVSS
VL: DIQMTQSPSSLSASVGDRVTITCRASQSISSYLNWYQQKPGKAPKLLIYRASTLASGVPSRFSGSGSGTDFTLTISSLQPEDFATYYCQQSYSSSNVDNTFGGGTKVEIK

target: T1, human transferrin receptor (recombinant, for surface plasmon resonance) (human, UniProt P02786 89-760); assay: SPR 25C
T1 construct: also called huTfR; human transferrin receptor-biotinylated
T1 sequence (P02786 89-760 limits assumed): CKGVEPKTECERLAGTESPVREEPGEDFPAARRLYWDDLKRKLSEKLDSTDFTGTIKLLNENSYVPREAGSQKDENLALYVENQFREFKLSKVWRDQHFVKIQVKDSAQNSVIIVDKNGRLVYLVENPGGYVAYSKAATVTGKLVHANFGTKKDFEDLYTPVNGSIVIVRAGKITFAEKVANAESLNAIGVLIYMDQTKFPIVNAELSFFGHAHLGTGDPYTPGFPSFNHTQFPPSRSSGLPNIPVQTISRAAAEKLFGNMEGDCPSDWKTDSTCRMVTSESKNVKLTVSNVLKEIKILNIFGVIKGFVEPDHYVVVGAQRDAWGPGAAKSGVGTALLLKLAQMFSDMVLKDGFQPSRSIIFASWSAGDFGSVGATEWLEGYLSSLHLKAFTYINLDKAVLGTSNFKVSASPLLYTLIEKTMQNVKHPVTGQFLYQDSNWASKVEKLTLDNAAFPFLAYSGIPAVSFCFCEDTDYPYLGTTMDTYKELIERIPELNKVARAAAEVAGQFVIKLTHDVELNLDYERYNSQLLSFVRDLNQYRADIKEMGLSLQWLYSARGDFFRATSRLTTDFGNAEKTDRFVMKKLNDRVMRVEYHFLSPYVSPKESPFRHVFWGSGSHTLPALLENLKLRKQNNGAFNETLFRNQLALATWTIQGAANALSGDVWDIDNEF

In order of rising koff:
1. B1  0.001 s⁻¹
2. B3  0.001 s⁻¹
3. B11  0.00101 s⁻¹
4. B14  0.00131 s⁻¹
5. B7  0.00187 s⁻¹
6. B15  0.00216 s⁻¹
7. B12  0.00241 s⁻¹
8. B4  0.00246 s⁻¹
9. B6  0.00275 s⁻¹
10. B2  0.0028 s⁻¹
11. B13  0.00286 s⁻¹
12. B9  0.00385 s⁻¹
13. B8  0.00578 s⁻¹
14. B5  0.00635 s⁻¹
15. B10  0.00771 s⁻¹
